We go through 9 molecules from patent publication US20240417436A1 (BRIGHT PEAK THERAPEUTICS, published 2024).

To fix the notation:
T1: Avi-Tag Fc with human IL-2R beta and IL-2R gamma attached (Acrobiosystems ACRB-ILG-H82F3-25UG) (human, UniProt P14784 27-239; P31785 23-262)
T1 construct: bought heterodimer; also called CD122 CD132; CD122/CD132 complex
T1 sequence (looked up) 1: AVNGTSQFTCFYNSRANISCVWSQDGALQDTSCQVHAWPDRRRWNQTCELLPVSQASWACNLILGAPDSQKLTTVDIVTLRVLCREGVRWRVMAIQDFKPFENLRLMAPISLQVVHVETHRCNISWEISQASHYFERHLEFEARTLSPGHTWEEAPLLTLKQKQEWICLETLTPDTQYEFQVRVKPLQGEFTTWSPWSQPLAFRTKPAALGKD
T1 sequence (looked up) 2: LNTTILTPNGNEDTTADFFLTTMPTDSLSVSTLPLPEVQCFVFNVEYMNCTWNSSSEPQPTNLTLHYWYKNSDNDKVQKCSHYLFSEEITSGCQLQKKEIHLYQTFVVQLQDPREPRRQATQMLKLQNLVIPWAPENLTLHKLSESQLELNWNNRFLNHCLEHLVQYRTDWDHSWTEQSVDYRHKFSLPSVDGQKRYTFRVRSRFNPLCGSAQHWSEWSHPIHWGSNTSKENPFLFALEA

T2: recombinant human IL-2 receptor beta containing a His-tag and Avi-Tag (R&D Systems #AVI10459) (human, UniProt P14784 27-239)
T2 construct: bought protein, held on the Octet SAX2 sensor; also called CD122; IL-2Rβ
T2 sequence (looked up): T1 sequence (looked up) 1

T3: IL-2 receptor βγ complex on pan T cells (human, UniProt P14784 27-551; P31785 23-369)
T3 sequence (looked up) 1: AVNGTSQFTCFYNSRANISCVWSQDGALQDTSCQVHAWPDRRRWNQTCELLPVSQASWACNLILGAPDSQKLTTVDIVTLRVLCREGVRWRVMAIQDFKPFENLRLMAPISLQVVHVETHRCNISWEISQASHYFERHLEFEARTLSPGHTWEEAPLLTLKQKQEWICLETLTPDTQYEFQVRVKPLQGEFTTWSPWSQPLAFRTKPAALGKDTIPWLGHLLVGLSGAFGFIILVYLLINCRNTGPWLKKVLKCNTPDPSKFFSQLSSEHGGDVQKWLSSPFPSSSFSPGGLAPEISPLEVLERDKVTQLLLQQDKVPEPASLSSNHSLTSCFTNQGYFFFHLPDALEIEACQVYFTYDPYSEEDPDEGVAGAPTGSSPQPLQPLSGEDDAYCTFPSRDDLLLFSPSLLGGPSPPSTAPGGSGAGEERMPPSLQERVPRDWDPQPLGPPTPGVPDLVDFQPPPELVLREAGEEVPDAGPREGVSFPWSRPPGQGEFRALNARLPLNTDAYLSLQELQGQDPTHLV
T3 sequence (looked up) 2: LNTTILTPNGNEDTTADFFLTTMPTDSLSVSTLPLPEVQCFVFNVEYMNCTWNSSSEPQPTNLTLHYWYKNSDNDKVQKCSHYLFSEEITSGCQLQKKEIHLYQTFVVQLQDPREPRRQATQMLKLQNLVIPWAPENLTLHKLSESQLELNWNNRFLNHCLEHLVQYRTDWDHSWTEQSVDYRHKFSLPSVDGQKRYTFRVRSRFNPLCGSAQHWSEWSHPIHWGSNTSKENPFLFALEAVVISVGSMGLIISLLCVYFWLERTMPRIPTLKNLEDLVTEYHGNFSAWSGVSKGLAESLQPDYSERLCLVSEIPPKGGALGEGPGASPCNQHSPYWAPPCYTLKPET

B1: CMP-319 (ligand)
chain: RGRRVANLVGAPTSSSTKKTQLQLEHLLLDLQEILNGINNYKNPKLTR[Nle]L[hSer][Yn3(3)]KF[Ygp(3)][Nle]PKKATELKHLQCLEEELKPLEEVL[hSer]LAQSKNFHLRPRDLISNINVIVLELKGSETTF[hSer]CEYADETATIVEFLNRWITFSQSIISTLT
modifications: lactam N-33; not fully specified (bridges)
B2: CMP-136 (ligand)
chain: APTSSSTKKTQLQLEHLLLDLQ[Nle]ILNGIENYKNPKLTR[Nle]L[hSer][Yn3″]KF[Ygp″][Nle]PKKATELKHLQCLEEELKPLEEVL[hSer]LAQSKNFHLRPRDLISNINVIVLELKGSETTF[hSer]CEYADETATIVEFLNRWITFSQSIISTLT
modifications: disulfide 58-105; bridge N-29; not fully specified (residue 29, bridges); also: cleavable peptide sequence not given here
B3: CMP-138 (ligand)
chain: APTSSSTKKTQLQLEHLLLDLQ[Nle]ILNGIENYKNPKLTR[Nle]L[hSer][Yn3]KF[Ygp][Nle]PKKATELKHLQCLEEELKPLEEVL[hSer]LAQSKNFHLRPRDLISNINVIVLELKGSETTF[hSer]CEYADETATIVEFLNRWITFSQSIISTLT
modifications: disulfide 58-105; bridge N-29; not fully specified (residue 29, bridges)
B4: CMP-130 (ligand)
chain: APTSSSTKKTQLQLE[Dab]LLLDLQ[Nle]ILNGINNYKNPKLTR[Nle]L[hSer][Yn3(3)]KF[Ygp(3)][Nle]PKKATELKHLQCLEEELKPLEEVL[hSer]LAQSKNFHLRPRDLISNINVIVLELKGSETTF[hSer]CEYADETATIVEFLNRWITFSQSIISTLT
B5: CMP-131 (ligand)
chain: APTSSSTKKTQLQLEK([PABC-Cit-Val-Glu-Ac])LLLDLQ[Nle]ILNGINNYKNPKLTR[Nle]L[hSer][Yn3″]KF[Ygp″][Nle]PKKATELKHLQCLEEELKPLEEVL[hSer]LAQSKNFHLRPRDLISNINVIVLELKGSETTF[hSer]CEYADETATIVEFLNRWITFSQSIISTLT
modifications: not fully specified; ends and bridges not checked
B6: CMP-166, MMP2 cleaved (ligand)
chain: APTSSSTKKTQLQLEHLLLDLQKILNGINNYKNPKLTRXLXYKFYXPKKATELKHLQCLEEELKPLEEVLXLAQSKNFHLRPRDLISNINVIVLELKGSETTFXCEYADETATIVEFLNRWITFSQSIISTLT
modifications: not fully specified; as CMP-166 but cleavable peptide cut by MMP2 (macrocycle opened); cut site not given
B7: CMP-167, MMP2 cleaved (ligand)
chain: B6 chain
modifications: not fully specified; as CMP-167 but cleavable peptide cut by MMP2 (macrocycle opened); cut site not given
B8: CMP-168, MMP2 cleaved (ligand)
chain: APTSSSTKKTQLQLEHLLLDLQEILNGINNYKNPKLTR[Nle]L[hSer][Yn3]KF[Ygp][Nle]PKKATELKHLQCLEEELKPLEEVL[hSer]LAQSKNFHLRPRDLISNINVIVLELKGSETTF[hSer]CEYADETATIVEFLNRWITFSQSIISTLT
modifications: disulfide 58-105 (inferred); not fully specified (residues 9, 23); also: cleaved by MMP2, bridge opened, remnants on Lys9 and Glu23 not defined
B9: CMP-165, MMP2 cleaved (ligand)
chain: APTSSSTKKTQLQLEHLLLDLQKILNGINNYKNPKLTR[Nle]L[hSer][Yn3]KF[Ygp][Nle]PKKATELKHLQCLEEELKPLEEVL[hSer]LAQSKNFHLRPRDLISNINVIVLELKGSETTF[hSer]CEYADETATIVEFLNRWITFSQSIISTLT
modifications: disulfide 58-105 (inferred); not fully specified (residue 23, N-terminus); also: MMP2 cleaved, ring opened, cut site not given here, peptide remnants on N-terminus (via glutaryl) and on Lys23 side chain

*1 amine or outer side, *2 acyl side, *3 side chain or, on linkers, in order; H or OH if unused. Bridges are numbered along the chain shown (N, C = ends). Primed or numbered codes have the meaning given here. Side-chain parts run from the residue outwards. [ ]: non-standard residue; d: D form. Ygp″ = O-(PEG8-amino)-tyrosine (O-(8x polyethylene glycol-amino)-tyrosine); Yn3″ = O-(PEG9-azido)-tyrosine (O-(9x polyethylene glycol-azido)-tyrosine); Ygp = O-(8x polyethylene glycol-amino)-tyrosine; Yn3 = O-(9x polyethylene glycol-azido)-tyrosine; PABC = O=C(OCc1ccc(N[*:1])cc1)[*:2]; Ygp(3) = O-(PEG8-amino)-tyrosine; Yn3(3) = O-(PEG9-azido)-tyrosine; Cit = NC(=O)NCCC[C@H](N)C(=O)O; hSer = N[C@@H](CCO)C(=O)O; Nle = CCCC[C@H](N)C(=O)O; Dab = NCC[C@H](N)C(=O)O

The first assay deals with T1, Avi-Tag Fc with human IL-2R beta and …. Briefly: BLI (Octet), receptor on SAX2 sensor, IL-2 as analyte. As to the method: (§1) Bilayer interferometry (BLI) assays were used to measure the binding constants between activatable IL-2 polypeptides (and activated versions thereof) to IL-2 receptor subunits or receptor complexes. BLI assays were conducted on an Octet® R8 instrument. Assay plates were 96 well, polypropylene, F-bottom (chimney well), black microplates (Greiner Bio-one, Cat. No: 655209). The biosensors were Octet® SAX2 (Sartorius, Cat. No: 18-5136). The assay buffer was 1× Kinetic Buffer (Sartorius, Cat. no: 18-5136) or Phosphate Buffered Saline (PBS) that contained 0.02% (v: v) Tween 20 (Polysorbate 20) and 0.1% (w/v) bovine serum albumin (BSA). The sensor was regenerated between measurements in 10 mM glycine pH 2.7 buffer.
(§2) Sensor attached receptors were either recombinant human IL-2 receptor beta containing a His-tag and Avi-Tag™ (R&D Systems™ #AVI10459) or an Avi-Tag™ Fc with human IL-2R beta and IL-2R gamma attached (Acrobiosystems Cat. no: ACRB-ILG-H82F3-25UG). Receptors were reconstituted from lyophilized powder to 500 μg/ml in PBS. Analytes were diluted in Kinetic buffer to 300 nM, then serially diluted to lower concentrations.
For orientation: Kd means the equilibrium constant for the complex coming apart. Broadly, the koff is a measure of how fast the partners let go of each other. The term kon denotes the second-order rate constant of association. Consider B1, for which the Kd stood at 0.00919 µM, the koff is 0.000786 s⁻¹ and the kon turned out to be 85500 M⁻¹ s⁻¹.
For B2, in that order: 0.0126 µM, 0.00498 s⁻¹ and 396000 M⁻¹ s⁻¹.
On the same counts, the results for B3 are 0.0123 µM, 0.00284 s⁻¹ and 232000 M⁻¹ s⁻¹.

The target in another assay is T2, recombinant human IL-2 receptor beta …. Described as above. As to the method:
as §1, §2
Take B1: the dissociation constant (Kd) stood at 0.0595 µM, the koff stood at 0.0122 s⁻¹ and the kon came to 206000 M⁻¹ s⁻¹.
Regarding B2, the Kd was found to be 0.00844 µM, the koff was 0.00767 s⁻¹ and the kon was 909000 M⁻¹ s⁻¹.
For B3, in that order: 0.0117 µM, 0.0105 s⁻¹ and 898000 M⁻¹ s⁻¹.

Another assay concerns the target T3, IL-2 receptor βγ complex on pan T cells. Briefly: cell-based or functional assay.
Consider B4, for which the “Average EC50, pSTAT5 assay in pan T cells, intact molecule” value is 66.8 nM.
The same measure, in the same setting: for B5 the value was 56.9 nM.

A further assay has the same target. Briefly: cell-based or functional assay. The source holds these as a separate data set.
In the case of B6, the “Average EC50, pSTAT5 assay in pan T cells, MMP2 cleaved molecule” value was found to be 4.36 nM.
Regarding B7, the “Average EC50, pSTAT5 assay in pan T cells, MMP2 cleaved molecule” value was 5.31 nM.
Still for that read-out and setting: the result for B8 reads 6.3 nM.
The same measure, in the same setting: for B9 the value was 1.42 nM.

For the next assay, the target named is T1, Avi-Tag Fc with human IL-2R beta and …. The assay can be described thus: BLI (Octet), receptor on SAX2 sensor, MMP2-treated IL-2 as analyte. Here is the method: as §1, §2
On the technique in general: Biolayer interferometry detects binding as a change in optical thickness at a sensor tip.
As for B6, binding was characterised by a dissociation constant (Kd) of 0.00121 µM, the koff was 0.000684 s⁻¹ and the kon was 567000 M⁻¹ s⁻¹.
For B7, in that order: 0.00155 µM, 0.000923 s⁻¹ and 594000 M⁻¹ s⁻¹.
For B8, in that order: 0.00227 µM, 0.00164 s⁻¹ and 602000 M⁻¹ s⁻¹.
The molecule B9 displayed a Kd of 0.00187 µM, a koff of 0.00114 s⁻¹ and a kon of 608000 M⁻¹ s⁻¹.

A further assay has as its target T2, recombinant human IL-2 receptor beta …. The description is as above. Here is the method:
as §1, §2
Regarding B6, the Kd came to 0.794 µM, the koff turned out to be 0.225 s⁻¹ and the kon came out at 283000 M⁻¹ s⁻¹.
On the same counts, the results for B7 are 0.658 µM, 0.227 s⁻¹ and 345000 M⁻¹ s⁻¹.
For B8, in that order: 1370 µM, 1.08 s⁻¹ and 789 M⁻¹ s⁻¹.
On the same counts, the results for B9 are 1.11 µM, 0.237 s⁻¹ and 213000 M⁻¹ s⁻¹.
